Measured values: paper PMC9922296, “Mechanistic insights into RNA surveillance by the canonical poly(A) polymerase Pla1 of the MTREC complex” (Nature Communications, 2023)
Values joined by “and” are separate entries in the source; they are usually repeats but may differ in a detail not shown here. Equal entries are not always repeated. No end group written: not given here.

Columns and labels:
[1] = target: T1, Pla1RRM with the charge reversal mutation K368E (S. pombe, UniProt Q10295 352-566, K368E); experiment: ITC
T1 sequence: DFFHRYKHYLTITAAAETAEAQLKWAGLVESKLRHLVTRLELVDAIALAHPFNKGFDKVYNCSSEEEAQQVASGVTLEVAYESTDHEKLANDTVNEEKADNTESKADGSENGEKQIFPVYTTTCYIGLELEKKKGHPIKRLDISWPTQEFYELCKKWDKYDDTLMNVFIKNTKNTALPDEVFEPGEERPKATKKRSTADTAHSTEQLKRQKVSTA

[2] = target: T2, Pla1EEE: Pla1RRM with K544/K545/R546 changed to EEE (S. pombe, UniProt Q10295 352-566, K544/K545/R546 to EEE); experiment: ITC
T2 sequence: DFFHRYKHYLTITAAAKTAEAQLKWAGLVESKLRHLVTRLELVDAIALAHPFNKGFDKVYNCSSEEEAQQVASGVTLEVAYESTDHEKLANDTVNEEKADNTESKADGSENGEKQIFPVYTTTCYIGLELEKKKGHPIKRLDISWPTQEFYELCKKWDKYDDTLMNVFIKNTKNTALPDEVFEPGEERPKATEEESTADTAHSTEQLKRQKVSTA

[3] = target: T3, Pla1_(EEQE): Pla1RRM with K559/R560/Q561/K562 changed to EEQE (S. pombe, UniProt Q10295 352-566, K559/R560/Q561/K562 to EEQE); experiment: ITC
T3 sequence: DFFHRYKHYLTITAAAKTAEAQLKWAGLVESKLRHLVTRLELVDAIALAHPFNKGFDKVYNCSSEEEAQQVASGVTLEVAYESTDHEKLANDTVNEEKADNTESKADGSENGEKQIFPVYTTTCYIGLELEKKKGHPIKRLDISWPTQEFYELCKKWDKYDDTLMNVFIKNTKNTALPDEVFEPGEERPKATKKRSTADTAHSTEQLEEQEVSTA

[4] = target: T4, Pla1RRM with the charge reversal mutation K368E (S. pombe, UniProt Q10295 352-566, K368E); experiment: ITC; MicroCal PEAQ-ITC, 25 °C, 20 mM HEPES pH 7.5, 150 mM NaCl, 2 mM BME; 40-50 µM protein in the cell, 400-500 µM ligand in the syringe; one-binding site model; details: both partners purified
T4 construct: canonical poly(A) polymerase Pla1, S. pombe, RRM domain, residues 352-566 with K368E; source: E. coli BL21 (DE3) Rosetta2, purified; not shown: His6, N-terminal, cleaved
T4 sequence (looked up): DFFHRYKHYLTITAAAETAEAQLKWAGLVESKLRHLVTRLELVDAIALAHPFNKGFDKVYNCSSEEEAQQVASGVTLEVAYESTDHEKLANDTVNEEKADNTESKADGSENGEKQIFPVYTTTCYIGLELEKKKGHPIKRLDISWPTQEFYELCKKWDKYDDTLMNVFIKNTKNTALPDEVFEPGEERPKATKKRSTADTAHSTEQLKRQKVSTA

[5] = target: T5, Pla1EEE: Pla1RRM with K544/K545/R546 changed to EEE (S. pombe, UniProt Q10295 352-566, K544/K545/R546 to EEE); experiment: as above; details: both partners purified
T5 construct: canonical poly(A) polymerase Pla1, S. pombe, RRM domain, residues 352-566 with K544/K545/R546 to EEE; source: E. coli BL21 (DE3) Rosetta2, purified; not shown: His6, N-terminal, cleaved
T5 sequence (looked up): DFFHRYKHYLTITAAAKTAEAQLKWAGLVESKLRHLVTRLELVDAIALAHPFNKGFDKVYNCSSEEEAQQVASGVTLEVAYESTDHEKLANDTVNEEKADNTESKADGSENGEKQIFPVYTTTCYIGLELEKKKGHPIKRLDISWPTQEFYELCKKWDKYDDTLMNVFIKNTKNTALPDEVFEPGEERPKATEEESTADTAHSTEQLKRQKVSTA

[6] = target: T6, Pla1_(EEQE): Pla1RRM with K559/R560/Q561/K562 changed to EEQE (S. pombe, UniProt Q10295 352-566, K559/R560/Q561/K562 to EEQE); experiment: as above; details: both partners purified
T6 construct: canonical poly(A) polymerase Pla1, S. pombe, RRM domain, residues 352-566 with K559/R560/Q561/K562 to EEQE; source: E. coli BL21 (DE3) Rosetta2, purified; not shown: His6, N-terminal, cleaved
T6 sequence (looked up): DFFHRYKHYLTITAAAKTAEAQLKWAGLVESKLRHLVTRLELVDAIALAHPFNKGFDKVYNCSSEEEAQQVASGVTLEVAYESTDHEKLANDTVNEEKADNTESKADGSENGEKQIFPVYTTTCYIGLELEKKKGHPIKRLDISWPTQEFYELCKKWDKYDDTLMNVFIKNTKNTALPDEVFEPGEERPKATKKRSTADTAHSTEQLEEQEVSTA

[7] = target: T7, C-terminal RRM domain of Pla1 (Pla1RRM, residues 352-566), purified (S. pombe, UniProt Q10295 352-566); experiment: as above; details: both partners purified
T7 construct: canonical poly(A) polymerase Pla1, S. pombe, C-terminal RRM domain, residues 352-566; also called Pla1 CTD; source: E. coli BL21 (DE3) Rosetta2, purified (His-Trap, TEV cleavage, Resource Q, Superdex 200); not shown: His6, N-terminal, cleaved
T7 sequence (looked up): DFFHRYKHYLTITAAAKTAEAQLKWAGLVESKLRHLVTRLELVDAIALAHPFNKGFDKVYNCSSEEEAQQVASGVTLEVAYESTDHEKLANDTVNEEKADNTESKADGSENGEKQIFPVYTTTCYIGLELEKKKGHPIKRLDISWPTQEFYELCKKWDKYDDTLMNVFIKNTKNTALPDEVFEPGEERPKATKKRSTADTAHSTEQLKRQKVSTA

[8] = target: T7, C-terminal RRM domain of Pla1 (Pla1RRM, …); experiment: ITC; competition: Red1_(288-345) titrated into Pla1RRM pre-incubated with a 1.1-fold molar excess of Iss1_(30-76); 25 °C, 20 mM HEPES pH 7.5, 150 mM NaCl, 2 mM BME; details: both partners purified
[9] = target: T8, Pla1RRM (C-terminal RRM domain of Pla1, residues 352-566) (S. pombe, UniProt Q10295 352-566); experiment: ITC; competition: Red1 288-345 titrated into Pla1RRM pre-incubated with a 1.1-fold molar excess of Iss1 30-76; 25 °C; 20 mM HEPES pH 7.5, 150 mM NaCl, 2 mM BME; details: both partners purified
T8 construct: Pla1, canonical poly(A) polymerase, S. pombe, C-terminal RRM domain, residues 352-566; also called Pla1 RRM domain; Pla1 CTD; source: E. coli BL21 (DE3) Rosetta2, purified (His-Trap, TEV cleavage, Resource Q, Superdex 200); not shown: His6, N-terminal, cleaved
T8 sequence (looked up): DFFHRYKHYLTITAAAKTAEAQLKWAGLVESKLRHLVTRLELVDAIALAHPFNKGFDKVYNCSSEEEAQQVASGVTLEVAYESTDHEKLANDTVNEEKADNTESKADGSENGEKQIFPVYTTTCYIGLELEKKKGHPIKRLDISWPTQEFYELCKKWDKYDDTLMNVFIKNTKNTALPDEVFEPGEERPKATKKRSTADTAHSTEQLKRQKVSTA

Pla1RRM EEQE = target: T9, Pla1RRM EEQE (S. pombe, UniProt Q10295 352-566, K559/R560/Q561/K562 to EEQE); experiment: ITC; Red1 or Iss1 construct in the syringe (400-500 µM) titrated into Pla1RRM (wild type or mutant) in the cell (40-50 µM); 25 °C; 20 mM HEPES pH 7.5, 150 mM NaCl, 2 mM BME; one-binding site model; each independent measurement listed; details: both partners purified
T9 construct: Pla1, S. pombe, C-terminal RRM domain, residues 352-566; also called Pla1_(EEQE); K559/R560/Q561/K562 to EEQE; source: E. coli BL21 (DE3) Rosetta2, purified (His-Trap, TEV cleavage, Resource Q, Superdex 200); not shown: His6, N-terminal, cleaved
T9 sequence (looked up): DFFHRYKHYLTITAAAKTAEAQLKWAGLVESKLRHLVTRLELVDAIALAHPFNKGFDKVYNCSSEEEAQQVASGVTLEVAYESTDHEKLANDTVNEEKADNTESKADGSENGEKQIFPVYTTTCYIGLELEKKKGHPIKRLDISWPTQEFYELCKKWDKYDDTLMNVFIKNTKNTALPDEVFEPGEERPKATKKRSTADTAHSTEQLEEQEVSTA

Pla1RRM EEE = target: T10, Pla1RRM EEE (S. pombe, UniProt Q10295 352-566, K544/K545/R546 to EEE); experiment: as above; details: both partners purified
T10 construct: Pla1, S. pombe, C-terminal RRM domain, residues 352-566; also called Pla1EEE; K544/K545/R546 to EEE; source: E. coli BL21 (DE3) Rosetta2, purified (His-Trap, TEV cleavage, Resource Q, Superdex 200); not shown: His6, N-terminal, cleaved
T10 sequence (looked up): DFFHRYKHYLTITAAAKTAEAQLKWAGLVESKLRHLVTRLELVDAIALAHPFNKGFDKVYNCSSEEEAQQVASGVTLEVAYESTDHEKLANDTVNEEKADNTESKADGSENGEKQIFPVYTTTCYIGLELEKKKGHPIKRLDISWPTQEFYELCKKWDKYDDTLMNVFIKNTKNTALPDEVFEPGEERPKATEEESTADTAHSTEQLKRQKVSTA

Pla1RRM K368E = target: T11, Pla1RRM K368E (S. pombe, UniProt Q10295 352-566, K368E); experiment: as above; details: both partners purified
T11 construct: Pla1, S. pombe, C-terminal RRM domain, residues 352-566; source: E. coli BL21 (DE3) Rosetta2, purified (His-Trap, TEV cleavage, Resource Q, Superdex 200); not shown: His6, N-terminal, cleaved
T11 sequence (looked up): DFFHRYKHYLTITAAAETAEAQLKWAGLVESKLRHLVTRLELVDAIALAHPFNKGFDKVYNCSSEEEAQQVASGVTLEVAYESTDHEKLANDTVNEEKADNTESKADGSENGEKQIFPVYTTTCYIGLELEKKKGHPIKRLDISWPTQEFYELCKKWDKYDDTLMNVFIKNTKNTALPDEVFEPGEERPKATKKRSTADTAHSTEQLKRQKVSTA

[10] = target: T8, Pla1RRM (C-terminal RRM domain of Pla1, …); experiment: as above; details: both partners purified
[11] = target: T8, Pla1RRM (C-terminal RRM domain of Pla1, …); experiment: ITC; control of the competition: Iss1 30-76 titrated into Pla1RRM pre-incubated with a 1.1-fold molar excess of Red1 288-345 W298A/F305A; 25 °C; 20 mM HEPES pH 7.5, 150 mM NaCl, 2 mM BME; details: both partners purified
[12] = target: T8, Pla1RRM (C-terminal RRM domain of Pla1, …); experiment: NMR titration; 1.5-fold molar excess of unlabelled Pla1RRM added to 0.3 mM 15N-labelled GB1-tagged Red1 constructs; 1H,15N-HSQC; 293 K; sodium phosphate pH 6.5, 100 mM NaCl; details: both partners purified

B1: Red1 residues 288-345 (Pla1 interaction region), purified (domain or fragment, S. pombe, UniProt Q9UTR8 288-345, looked up)
chain: ISLPLLKQDDWLSSSKPFGSSTPNVVIEFDSDDDGDDFSNSKIEQSNLEKPPSNSENG
notes: source: E. coli BL21 (DE3), purified (His-Trap, TEV cleavage, second IMAC, Superdex 75); not shown: GB1, N-terminal, cleaved; His6, C-terminal, kept
Kd [1]: 17.8 µM
Kd [2]: 9.8 µM
Kd [3]: 2.8 µM
fold loss in affinity against wild-type Pla1RRM [4]: ~13 fold
fold loss in affinity against wild-type Pla1RRM [5]: ~7 fold
fold loss in affinity against wild-type Pla1RRM [6]: ~2 fold
Kd [7]: 1.4 µM
KD into the pre-formed Pla1RRM-Iss1_(30-76) complex [8]: 11 µM

B2: Red1 288-345 (domain or fragment, S. pombe)
chain: ISLPLLKQDDWLSSSKPFGSSTPNVVIEFDSDDDGDDFSNSKIEQSNLEKPPSNSENG
notes: as for B1
stoichiometry N [9]: 1.11 and 1.82
Kd (Pla1RRM EEQE): 3.28 µM and 2.27 µM
stoichiometry N (Pla1RRM EEQE): 1.03 and 0.97
Kd (Pla1RRM EEE): 9.43 µM and 9.98 µM
stoichiometry N (Pla1RRM EEE): 0.86 and 0.94
Kd (Pla1RRM K368E): 15.3 µM and 20.3 µM
stoichiometry N (Pla1RRM K368E): 0.8 and 1
Kd [10]: 1.56 µM and 1.15 µM and 1.37 µM
stoichiometry N [10]: 1.05 and 0.952 and 1.19

B3: Iss1 30-76 (domain or fragment, S. pombe)
chain: VSNAKSPEQASEESDDSDIEFIIETKPGERAEPLGGSIATLGSTRPS
notes: Iss1 (fission yeast orthologue of scFip1), S. pombe, residues 30-76; source: E. coli BL21 (DE3) Rosetta2, purified (His-Trap, TEV cleavage, second IMAC flow-through, Superdex 75); not shown: His-Thioredoxin, N-terminal, cleaved
Kd [10]: 2.11 µM and 2.94 µM
stoichiometry N [10]: 1
stoichiometry N [11]: 0.97 and 1

B4: GB1-tagged Red1 288-322 (domain or fragment, S. pombe)
chain: ISLPLLKQDDWLSSSKPFGSSTPNVVIEFDSDDDG
modifications: not fully specified (N-terminus); also: 15N-labelled
notes: source: E. coli BL21 (DE3), 15N-labelled in M9 minimal medium, purified; not shown: GB1, N-terminal, kept; His6, C-terminal, kept
binding result [12]: binds
